From US8974802B2, “Medicament for the treatment of cancer of the pancreas” (Erytech Pharma, priority 2007, dated 2015)

Experiments:
[1] = system: Mia PaCa-2 human pancreatic tumour cells; test: Growth inhibition of human pancreatic tumours (Mia PaCa-2) in nude mice; format: in vivo; details: after 57 days, L-Aspa RBC single 200 IU/kg i.v., gemcitabine 4 x 60 mg/kg i.v.
Excerpt: The purpose of this experiment is to inject L-Aspa RBC into mice bearing human pancreatic tumours and to observe a tumour growth inhibition. A cell line sensitive to L-asparaginase in vitro, and deficient in L-asparagine synthase, was selected: Mia PaCa-2. To study the tumour growth inhibition after the injection of L-Aspa RBC, an in vivo protocol was set up with 4 groups of 12 mice. A reference treatment for cancer of the pancreas, gemcitabine, is included in the protocol. Human pancreatic tumour cells (Mia PaCa-2) in exponential growth phase (origin ATCC: American Type Culture Collection) were subjected to tryptic digestion, then counted and washed before finally being resuspended in a DMEM serum-free medium in order for them to be injected subcutaneously into 48 athymic nude/nude mice. The 48 athymic nude/nude (nude balb/c) mice, aged 5-6 weeks and between 18 and 22 g in weight, were supplied by Harlan (France). The animals were kept for 7 days in a specialized SPF (specific-pathogen-free) unit before the treatment. The 48 mice were divided randomly into 4 groups of 12 mice. […]

[2] = system: PANC-1 human pancreatic tumor (clone no. 6sC); test: In vivo anti-tumoral study in mice bearing pancreatic tumor PANC-1; details: day 43, L-aspa RBC single 200 IU/kg i.v., gemcitabine 4 x 80 mg/kg i.v.
Excerpt: The objective of this study was to assess the antitumoral effects of L-asparaginase encapsulated in red blood cells (L-aspa RBC) administered in a human pancreatic tumor (PANC-1) xenograft model.
In this study, 4 groups of 15 mice received either L-asparaginase encapsulated in red blood cells, gemcitabine (reference treatment in pancreatic cancer), a combination of both agents or control item. A last group of 10 mice received no treatment and was used as control group.
A Log-growing culture of human pancreatic tumor cells, PANC-1 (obtained from ECCAC, UK), was subcloned and the clone no.
Clone no 6sC was trypsinized, counted, washed and resuspended in serum-free DMEM medium for sub-cutaneous injection to 100 nu/nu athymic mice.
Hundred athymic Nude mice of 5 week-old, weighing 20 g+/−3 g were supplied by Harlan France. […]
Four days after cell implantation, tumor volumes were measured and ranked according to size and median was calculated. […]
Tumor measurements were recorded 3 times a week (on Mondays, Wednesday and Friday) during 43 days.
The relative tumor volume is calculated by dividing the tumor volume at a given day by the tumor volume before treatment avoiding the bias due to statistical difference in tumor volume between groups on the day of injection.

[3] = system: MIA Paca-2 cells; details: nude mice; PEG-asparaginase 12.5 or 25 IU/g per day i/p for 14 days; gemcitabine 80 mg/kg i/p days 1, 4, 7, 10; cited from earlier work
[4] = system: MIA Paca-2 cells; details: PEG-asparaginase 0.8 kIU/kg; gemcitabine 80 mg/kg; mice; cited from earlier work
[5] = system: MIA Paca-2 cells; details: cited from earlier work
[6] = system: PANC-1 cells; details: cited from earlier work
[7] = system: human pulmonary and melanoma cells; details: Yunis et al. 1977; cited from earlier work
[8] = system: pancreatic carcinoma; details: cited from earlier work
[9] = direct injection; cited from earlier work
[10] = system: BxPC-3 cells; details: 10 IU/ml; Denis et al. 1999; cited from earlier work
[11] = system: PANC 10.05; details: AACR 2006; cited from earlier work
[12] = system: CFPAC-2; details: AACR 2006; cited from earlier work
[13] = system: AsPC-1; details: AACR 2006; cited from earlier work
[14] = system: solid tumor; details: trial suspended; cited from earlier work

Molecule: Nc1ccn([C@@H]2O[C@H](CO)[C@@H](O)C2(F)F)c(=O)n1 [gemcitabine]
- tumour volume [1]: 1353±1016 mm^3
- mouse survival (mice remaining / still alive) [2]: 20%
- relative tumor volume ([2]; tumor volume divided by volume before treatment): 51.8±17.1
- cell growth inhibition in vivo [3]: 63.5%
- decrease of tumour volume [4]: 29%

B1: asparaginase (protein, UniProt P00805 23-348, looked up)
L-asparaginase 2: LPNITILATGGTIAGGGDSATKSNYTVGKVGVENLVNAVPQLKDIANVKGEQVVNIGSQDMNDNVWLTLAKKINTDCDKTDGFVITHGTDTMEETAYFLDLTVKCDKPVVMVGAMRPSTSMSADGPFNLYNAVVTAADKASANRGVLVVMNDTVLDGRDVTKTNTTDVATFKSVNYGPLGYIHNGKIDYQRTPARKHTSDTPFDVSKLNELPKVGIVYNYANASDLPAKALVDAGYDGIVSAGVGNGNLYKSVFDTLATAAKTGTAVVRSSRVPTGATTQDAEVDDAKYGFVASGTLNPQKARVLLQLALTQTKDPQQIQQIFNQY
notes: bacterial enzyme, CAS number 9015-68-3, hydrolyses and depletes asparagine
- inhibition of cell growth ([5]; 0.0025 IU/ml, Wu et al. 1982): no effect
- effect on the growth of the cells ([5]; 0.1 IU/ml, Yunis et al. 1977): significant effect on the growth of the cells
- effect on cell growth ([5]; 0.5 and 1 IU/ml, Yunis et al. 1977): total inhibition of cell growth with cell death
- inhibition of cell growth ([6]; 0.0025 IU/ml, Wu et al. 1982): no effect
- effect on cell growth ([6]; 1 IU/ml, Yunis et al. 1977): has an effect
- effect on growth [7]: no effect
- side-effects ([8]; IV 1000 IU/kg/day, ten patients with inoperable pancreatic cancer, treatment stopped early): Serious side-effects appeared rapidly
- clinical response ([8]; two of the patients, Lessner 1977): no response
- allergic reaction incidence [9]: 27%

B2: PEG-asparaginase: pegylated form of asparaginase (Oncaspar, Enzon Pharmaceuticals) (protein, UniProt P00805 23-348, looked up)
L-asparaginase 2: LPNITILATGGTIAGGGDSATKSNYTVGKVGVENLVNAVPQLKDIANVKGEQVVNIGSQDMNDNVWLTLAKKINTDCDKTDGFVITHGTDTMEETAYFLDLTVKCDKPVVMVGAMRPSTSMSADGPFNLYNAVVTAADKASANRGVLVVMNDTVLDGRDVTKTNTTDVATFKSVNYGPLGYIHNGKIDYQRTPARKHTSDTPFDVSKLNELPKVGIVYNYANASDLPAKALVDAGYDGIVSAGVGNGNLYKSVFDTLATAAKTGTAVVRSSRVPTGATTQDAEVDDAKYGFVASGTLNPQKARVLLQLALTQTKDPQQIQQIFNQY
modifications: PEG
- cell growth inhibition ([5]; 1 IU/ml, Denis et al. 1999): 61%
- in vitro cytotoxicity (IC50) ([5]; AACR 2006): 0.66 IU/ml
- IC50 ([5]; Denis et al. 1999): 0.13 IU/ml
- cell growth inhibition ([6]; 1 IU/ml, Denis et al. 1999): 100%
- in vitro cytotoxicity (IC50) ([6]; AACR 2006): 0.27 IU/ml
- IC50 ([6]; Denis et al. 1999): 0.25 IU/ml
- cell growth inhibition [10]: 51%
- in vitro cytotoxicity (IC50) [11]: 0.46 IU/ml
- in vitro cytotoxicity (IC50) [12]: greater than 20 IU/ml
- in vitro cytotoxicity (IC50) [13]: greater than 20 IU/ml
- cell growth inhibition in vivo [3]: 59%
- decrease of tumour volume [4]: 14%
- clinical trial outcome [14]: toxicity was reached before efficacy
